Laboratory results: article PMC9638917, “Non-canonical Staphylococcus aureus pathogenicity island repression”

Key:
[1] = target: SaPI1 Stl repressor (Stl^SaPI1), expressed alone with an N-terminal His6-tag and TEV site (Staphylococcus aureus (pathogenicity island SaPI1)); test: SEC-MALS; 2 mg/ml, Stl alone or in complex with Sri; 50 mM Tris-HCl pH 7.5, 250 mM NaCl, 5 mM MgCl2; Protein KW403 column (Shodex), 0.4 ml/min
[2] = target: SaPI1 Stl repressor (Stl^SaPI1), expressed alone with an N-terminal His6-tag and TEV site (Staphylococcus aureus (pathogenicity island SaPI1)); test: SEC-SAXS; 10.0 mg/ml Stl^SaPI1 and 6.5 mg/ml Stl^SaPI1-Sri (His6 tag on Sri); Superdex 200 Increase 3.2, 10 mM Tris pH 8, 1% (w/v) sucrose; mass by Bayesian inference
[3] = target: SaPI1 Stl repressor (Stl^SaPI1), untagged, co-expressed with His6-Sri (Staphylococcus aureus (pathogenicity island SaPI1)); test: SEC-MALS; 2 mg/ml, Stl alone or in complex with Sri; 50 mM Tris-HCl pH 7.5, 250 mM NaCl, 5 mM MgCl2; Protein KW403 column (Shodex), 0.4 ml/min
[4] = target: SaPI1 Stl repressor (Stl^SaPI1), untagged, co-expressed with His6-Sri (Staphylococcus aureus (pathogenicity island SaPI1)); test: crystal structure; 80α Sri-Stl^SaPI1 SeMet derivative, His6-tag of Sri removed; sitting drop, 15 °C, 0.4 M ammonium phosphate, 25% PEG200; SAD, 2.9 Å
[5] = target: SaPI1 Stl repressor (Stl^SaPI1), untagged, co-expressed with His6-Sri (Staphylococcus aureus (pathogenicity island SaPI1)); test: SEC-SAXS; 10.0 mg/ml Stl^SaPI1 and 6.5 mg/ml Stl^SaPI1-Sri (His6 tag on Sri); Superdex 200 Increase 3.2, 10 mM Tris pH 8, 1% (w/v) sucrose; mass by Bayesian inference
[6] = target: SaPI1 Stl repressor L201E mutant (Stl^(SaPI1 L201E)), expressed alone (Staphylococcus aureus (pathogenicity island SaPI1)); test: SEC-MALS; 2 mg/ml, Stl alone or in complex with Sri; 50 mM Tris-HCl pH 7.5, 250 mM NaCl, 5 mM MgCl2; Protein KW403 column (Shodex), 0.4 ml/min
[7] = target: SaPI1 Stl repressor L201E mutant (Stl^(SaPI1 L201E)), untagged, co-expressed with His6-Sri (Staphylococcus aureus (pathogenicity island SaPI1)); test: crystal structure; 80α Sri-Stl^(SaPI1 L201E), His6-tag of Sri removed; sitting drop, 15 °C, 0.1 M Tris-HCl pH 8.5, 22% PEG350; molecular replacement, 2.97 Å
StlSaPI1 = StlSaPI1 (Staphylococcus aureus pathogenicity …, UniProt O54475 1-247); test: EMSA; two complex species; BLI: 50 mM Tris-HCl pH 8, 300 mM NaCl, 5 mM MgCl2, 50 uM EDTA, 0.005% Tween, 25 C; EMSA: 50 mM Tris-HCl pH 8, 5 mM MgCl2, 1 mM DTT, 0.1 mM EDTA, 5% glycerol, 1; settings: protein: recombinant; tags: N-terminal His6 + TEV site; chain copies: 4; near blunt as printed

SaPI1 Stl repressor (Stl^SaPI1), expressed alone with an N-terminal His6-tag and TEV site (natural protein)
stoichiometry N [1]: 4
stoichiometry N [2]: 4

SaPI1 Stl repressor (Stl^SaPI1), untagged, co-expressed with His6-Sri (natural protein)
stoichiometry N [3]: 4
stoichiometry N [4]: 4
stoichiometry N [5]: 4

SaPI1 Stl repressor L201E mutant (Stl^(SaPI1 L201E)), expressed alone (natural protein)
stoichiometry N [6]: 2

SaPI1 Stl repressor L201E mutant (Stl^(SaPI1 L201E)), untagged, co-expressed with His6-Sri (natural protein)
stoichiometry N [7]: 2

B1: Operator 1-4 (dsDNA)
DNA 1: GGATAAGTTGTACTTTGAGTACAATATTTTAAAAAATGAAAAAAAAAAAAGAAGTGTGTAATATTTGTTTAAAAAACAAAAAAAAAAAAAGTACTTGTAGTACTAAAAGAAC
DNA 2: GGTTCTTTTAGTACTACAAGTACTTTTTTTTTTTTTGTTTTTTAAACAAATATTACACACTTCTTTTTTTTTTTTCATTTTTTAAAATATTGTACTCAAAGTACAACTTATCC
binding result (StlSaPI1): binds
